Test results from ChEMBL document CHEMBL2073795, “Secretory mechanisms of grepafloxacin and levofloxacin in the human intestinal cell line caco-2” (J Pharmacol Exp Ther, 2000).

Tested on: Cc1c(F)c(N2CCNC(C)C2)cc2c1c(=O)c(C(=O)O)cn2C1CC1
Assay: TP_TRANSPORTER: transepithelial transport (basal to apical) in Caco-2 cells
Type: functional, cell-based

Q: With “ATP-dependent translocase ABCB1 (Homo sapiens)” as the substance, how does the Km read?
A: 580 µM
